Data from patent US11278600B2, “Human alpha-galactosidase variants” (Codexis, Inc., priority 2014, dated 2022).
Changes are numbered by the printed parent chain.

B1: 321 (protein)
chain: LDNGLARTPTMGWLHWERFMCNLDCQEEPDSCISEKLFMEMAELMVSEGWKDAGYEYLCIDDCWMAPQRDSEGRLQADPQRFPHGIRQLANYVHSKGLKFGIYADVGNKTCAGFPGSFGYYDIDAQTFADWGVDLLKFDGCYCDSLENLADGYKHMSLALNRTGRSIVYSCEWPLYMWPFQKPNYTEIRQYCNHWRNFADIDDSWASIKSILDWTSFNQEKIVDVAGPGGWNDPDMLVIGNFGLSWDQQVTQMALWAIMAAPLFMSNDLRHISPQAKALLQDKDVIAINQDPLGKQGYQLRQGDNFEVWERPLSGLAWAVAIINRQEIGGPRSYTIAVASLGGGVACNPACFITQLLPVKRKLGFYNWTSRLKSHINPTGTVLLQLENTMQMSLKDLL
modifications: Synthetic Polypeptide sequence of Variant No. 321 of mature Human GLA
B2: 323 (protein)
chain: B1 chain with L160I, D247N, I322V, G343K
modifications: Synthetic Polypeptide sequence of Variant No. 323 of mature Human GLA
B3: 333 (protein)
chain: B1 chain with L44R, F100L, K221R, D247N, L316D, A337P, G343K, A350G, T369S
modifications: Synthetic Polypeptide sequence of Variant No. 333 of mature Human GLA
B4: 332 (protein)
chain: B1 chain with L44R, F100L, I208V, K221T, D247N, Q302K, F365L, I376V
modifications: Synthetic Polypeptide sequence of Variant No. 332 of mature Human GLA
B5: 322 (protein)
chain: B1 chain with K221T, D247N, Q302K, G343D
modifications: Synthetic Polypeptide sequence of Variant No. 322 of mature Human GLA
B6: 327 (protein)
chain: B1 chain with L44R, F100L, F217R, K221R, Q302K, L316D, G343D, A350G, K362Q
modifications: Synthetic Polypeptide sequence of Variant No. 327 of mature Human GLA
B7: 328 (protein)
chain: B1 chain with L44R, F100L, F217R, K221R, D247N, Q302K, A337P, G343K, A350G, T369S
modifications: Synthetic Polypeptide sequence of Variant No. 328 of mature Human GLA
B8: 325 (protein)
chain: B1 chain with L44R, F100L, F217R, K221R, L316D, A337P, K362Q
modifications: Synthetic Polypeptide sequence of Variant No. 325 of mature Human GLA
B9: 330 (protein)
chain: B1 chain with L44R, F100L, I208V, D247N, G343D
modifications: Synthetic Polypeptide sequence of Variant No. 330 of mature Human GLA
B10: 331 (protein)
chain: B1 chain with L44R, F100L, I208V, G343D, I376V
modifications: Synthetic Polypeptide sequence of Variant No. 331 of mature Human GLA
B11: 329 (protein)
chain: B1 chain with L44R, F100L, I208V, K221R, Q302K, G343D
modifications: Synthetic Polypeptide sequence of Variant No. 329 of mature Human GLA
B12: 324 (protein)
chain: B1 chain with L23S, F100L, K221R, D247N, G343K
modifications: Synthetic Polypeptide sequence of Variant No. 324 of mature Human GLA
B13: 326 (protein)
chain: B1 chain with L44R, F100L, F217R, K221R, Q302K, L316D, A337P, G343K, K362Q
modifications: Synthetic Polypeptide sequence of Variant No. 326 of mature Human GLA

Tests used:
Format in all cases: biochemical
[1] = HTP-analysis of yeast culture supernatants, no challenge (MUGal hydrolysis); conditions: activity of the variant/activity of Rd3BB (SEQ ID NO: 13), yeast culture supernatant
How it was run: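 GLA variants were expressed in INVSc1 yeast grown in SD-Ura broth with glucose at 30° C., and culture supernatants were collected after 66-84 h. Supernatant was mixed with McIlvaine buffer pH 4.8 and MUGal (2 mM stock) in 50 mM citrate, 200 mM KCl, pH 4.6, incubated at 37° C. for 30-180 minutes, then quenched with sodium carbonate.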

[2] = HTP-analysis of supernatants pretreated with acid (MUGal hydrolysis); conditions: challenge at pH 4.0; activity of the variant/activity of Rd3BB (SEQ ID NO: 13); yeast culture supernatant
How it was run: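 Yeast INVSc1 supernatant, GLA variants; acid challenge: McIlvaine pH 3.3-4.3, 37° C., 1-3 h. Assay: MUGal in McIlvaine pH 4.8 plus citrate pH 4.3, 37° C., 30-180 min, Na2CO3 stop, Ex 355/Em 448 nm.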

[3] = HTP-analysis of supernatants pretreated with base (MUGal hydrolysis); conditions: challenge at pH 8.2; activity of the variant/activity of Rd3BB (SEQ ID NO: 13); yeast culture supernatant
How it was run: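 GLA variants secreted from yeast INVSc1; culture supernatants pre-incubated with McIlvaine buffer pH 7.0–8.2 or 200 mM bicarbonate pH 9.1–9.7 at 37° C. for 1–18 h. Residual activity: MUGal (4 mM stock) hydrolysis at pH 4.3–4.8, 37° C., 30–180 min, carbonate quench; fluorescence Ex 355/Em 448 nm.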

[4] = HTP-analysis of supernatants pretreated with bovine serum (MUGal hydrolysis); conditions: activity of the variant/activity of Rd3BB (SEQ ID NO: 13), yeast culture supernatant
How it was run: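 Yeast INVSc1 culture supernatants containing secreted GLA variants were mixed with bovine serum (20:80) and held 1 h at 37° C. Serum-treated samples then reacted with MUGal (4 mM stock) in citrate/McIlvaine buffer (pH 4.3/4.8) for 180 min at 37° C., were quenched with sodium carbonate, and read by fluorescence (Ex 355, Em 448 nm).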

| Molecule | Relative Activity of GLA Variants After No Challenge (NC) [1] | Relative Activity of GLA Variants After Challenge at pH 4.0 [2] | Relative Activity of GLA Variants After Challenge at pH 8.2 [3] | Relative Activity of GLA Variants After Challenge with Serum [4] |
| --- | --- | --- | --- | --- |
| B1 | ++ (++ = >1.5 to 2.5 relative activity over Rd3BB (SEQ ID NO: 13)) | ++ (++ = >1.5 to 2.5 relative activity over Rd3BB (SEQ ID NO: 13)) | +++ (+++ = >2.5 relative activity over Rd3BB (SEQ ID NO: 13)) | + (+ = 0.5 to 1.5 relative activity over Rd3BB (SEQ ID NO: 13)) |
| B2 | − (− = <0.5 relative activity to Rd3BB (SEQ ID NO: 13)) | − (− = <0.5 relative activity to Rd3BB (SEQ ID NO: 13)) | − (− = <0.5 relative activity to Rd3BB (SEQ ID NO: 13)) | + (+ = 0.5 to 1.5 relative activity over Rd3BB (SEQ ID NO: 13)) |
| B3 | ++ (++ = >1.5 to 2.5 relative activity over Rd3BB (SEQ ID NO: 13)) | ++ (++ = >1.5 to 2.5 relative activity over Rd3BB (SEQ ID NO: 13)) | ++ (++ = >1.5 to 2.5 relative activity over Rd3BB (SEQ ID NO: 13)) | + (+ = 0.5 to 1.5 relative activity over Rd3BB (SEQ ID NO: 13)) |
| B4 | + (+ = 0.5 to 1.5 relative activity over Rd3BB (SEQ ID NO: 13)) | + (+ = 0.5 to 1.5 relative activity over Rd3BB (SEQ ID NO: 13)) | + (+ = 0.5 to 1.5 relative activity over Rd3BB (SEQ ID NO: 13)) | + (+ = 0.5 to 1.5 relative activity over Rd3BB (SEQ ID NO: 13)) |
| B5 | + (+ = 0.5 to 1.5 relative activity over Rd3BB (SEQ ID NO: 13)) | + (+ = 0.5 to 1.5 relative activity over Rd3BB (SEQ ID NO: 13)) | ++ (++ = >1.5 to 2.5 relative activity over Rd3BB (SEQ ID NO: 13)) | + (+ = 0.5 to 1.5 relative activity over Rd3BB (SEQ ID NO: 13)) |
| B6 | ++ (++ = >1.5 to 2.5 relative activity over Rd3BB (SEQ ID NO: 13)) | +++ (+++ = >2.5 relative activity over Rd3BB (SEQ ID NO: 13)) | +++ (+++ = >2.5 relative activity over Rd3BB (SEQ ID NO: 13)) | +++ (+++ = >2.5 relative activity over Rd3BB (SEQ ID NO: 13)) |
| B7 | + (+ = 0.5 to 1.5 relative activity over Rd3BB (SEQ ID NO: 13)) | + (+ = 0.5 to 1.5 relative activity over Rd3BB (SEQ ID NO: 13)) | + (+ = 0.5 to 1.5 relative activity over Rd3BB (SEQ ID NO: 13)) | + (+ = 0.5 to 1.5 relative activity over Rd3BB (SEQ ID NO: 13)) |
| B8 | ++ (++ = >1.5 to 2.5 relative activity over Rd3BB (SEQ ID NO: 13)) | +++ (+++ = >2.5 relative activity over Rd3BB (SEQ ID NO: 13)) | +++ (+++ = >2.5 relative activity over Rd3BB (SEQ ID NO: 13)) | +++ (+++ = >2.5 relative activity over Rd3BB (SEQ ID NO: 13)) |
| B9 | ++ (++ = >1.5 to 2.5 relative activity over Rd3BB (SEQ ID NO: 13)) | ++ (++ = >1.5 to 2.5 relative activity over Rd3BB (SEQ ID NO: 13)) | + (+ = 0.5 to 1.5 relative activity over Rd3BB (SEQ ID NO: 13)) | + (+ = 0.5 to 1.5 relative activity over Rd3BB (SEQ ID NO: 13)) |
| B10 | + (+ = 0.5 to 1.5 relative activity over Rd3BB (SEQ ID NO: 13)) | ++ (++ = >1.5 to 2.5 relative activity over Rd3BB (SEQ ID NO: 13)) | ++ (++ = >1.5 to 2.5 relative activity over Rd3BB (SEQ ID NO: 13)) | + (+ = 0.5 to 1.5 relative activity over Rd3BB (SEQ ID NO: 13)) |
| B11 | + (+ = 0.5 to 1.5 relative activity over Rd3BB (SEQ ID NO: 13)) | ++ (++ = >1.5 to 2.5 relative activity over Rd3BB (SEQ ID NO: 13)) | ++ (++ = >1.5 to 2.5 relative activity over Rd3BB (SEQ ID NO: 13)) | ++ (++ = >1.5 to 2.5 relative activity over Rd3BB (SEQ ID NO: 13)) |
| B12 | − (− = <0.5 relative activity to Rd3BB (SEQ ID NO: 13)) | − (− = <0.5 relative activity to Rd3BB (SEQ ID NO: 13)) | − (− = <0.5 relative activity to Rd3BB (SEQ ID NO: 13)) | − (− = <0.5 relative activity to Rd3BB (SEQ ID NO: 13)) |
| B13 | ++ (++ = >1.5 to 2.5 relative activity over Rd3BB (SEQ ID NO: 13)) | +++ (+++ = >2.5 relative activity over Rd3BB (SEQ ID NO: 13)) | +++ (+++ = >2.5 relative activity over Rd3BB (SEQ ID NO: 13)) | +++ (+++ = >2.5 relative activity over Rd3BB (SEQ ID NO: 13)) |
